Target: T1, PTH receptor (PTH1R), parathyroid hormone type 1 receptor, on mouse astrocytes (mouse, UniProt P41593 27-591)
T1 construct: whole, on cells; Endogenous receptor of mouse cells; not isolated or expressed recombinantly
T1 sequence (looked up): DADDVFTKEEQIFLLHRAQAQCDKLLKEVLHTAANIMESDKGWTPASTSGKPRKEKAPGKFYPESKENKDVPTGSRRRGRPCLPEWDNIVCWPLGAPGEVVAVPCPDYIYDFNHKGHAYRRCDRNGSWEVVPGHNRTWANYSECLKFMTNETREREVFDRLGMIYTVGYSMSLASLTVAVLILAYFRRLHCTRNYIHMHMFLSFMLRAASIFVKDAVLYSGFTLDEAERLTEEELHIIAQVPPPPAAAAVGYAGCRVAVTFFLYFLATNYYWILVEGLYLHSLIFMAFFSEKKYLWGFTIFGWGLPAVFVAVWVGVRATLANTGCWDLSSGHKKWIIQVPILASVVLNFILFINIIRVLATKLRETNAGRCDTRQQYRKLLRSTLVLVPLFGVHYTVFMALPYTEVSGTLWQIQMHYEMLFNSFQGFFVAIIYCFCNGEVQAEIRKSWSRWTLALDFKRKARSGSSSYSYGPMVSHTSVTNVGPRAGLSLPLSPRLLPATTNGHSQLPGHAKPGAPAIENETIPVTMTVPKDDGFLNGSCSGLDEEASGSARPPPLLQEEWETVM
Assay: summary sentence of the example; inferred from Biotin-PTH1-34 co-staining with astrocytes, PTH1R expression and signalling in cultured astrocytes

binding result: binds
B1: Parathyroid hormone (human) PTH1-34 (TOCRIS Bioscience, Cat #3011/1) (peptide, UniProt P01270 32-65, looked up)
peptide: SVSEIQLMHNLGKHLNSMERVEWLRKKLQDVHNF
notes: range 1-34; Residues 1-34 count on mature PTH, not on the precursor; also called hPTH1-34; Teriparatide

Source: patent US20240299504A1, “COMPOSITIONS AND METHODS FOR TREATING ALZHEIMERS DISEASE” (priority 2023, published 2024)
